The results in this text go back to the Immune Epitope Database (IEDB).

In one experiment the target is HLA-B*27:05. In words: IEDB peptide-MHC binding, purified MHC/competitive/fluorescence; filed as Kd, often an IC50 or EC50 that approximates it; ≥ and ≤ were set here for values at or beyond the usual limits of such assays.
In experiment [1] the target is HLA-A*02:12. The experiment is described as above. Particulars: source organism: Vibrio cholerae 2740-80.
Experiment [2] concerns the target HLA-A*29:02. The experiment is described as above. Conditions: source organism: Vibrio cholerae 2740-80.
Experiment [3] has as its target HLA-B*15:01. Described as above.
Experiment [4] has as its target HLA-B*27:03. Described as above. Conditions: source organism: Vibrio cholerae 2740-80.
Experiment [5] has as its target HLA-B*46:01. Described as above. Conditions: source organism: Vibrio cholerae 2740-80.
Experiment [6] deals with HLA-B*15:17. The description is as above. Particulars: source organism: Vibrio cholerae 2740-80.
Experiment [7] addresses HLA-B*57:01. The description is as above. Particulars: source organism: Vibrio cholerae 2740-80.
For experiment [8], the target named is HLA-A*02:11. The experiment is described as above. Conditions: source organism: Vibrio cholerae 2740-80.
Experiment [9] deals with HLA-A*02:01. Described as above. Particulars: source organism: Vibrio cholerae 2740-80.
The target in experiment [10] is HLA-A*03:01. The experiment is described as above.
The next experiment concerns the target HLA-B*51:01. The description is as above. Particulars: source organism: Vibrio cholerae 2740-80.
The next experiment deals with HLA-A*68:02. Described as above. Particulars: source organism: Vibrio cholerae 2740-80.
Experiment [11] addresses HLA-A*24:03. Described as above. Conditions: source organism: Vibrio cholerae 2740-80.
Experiment [12] concerns the target HLA-A*26:01. The experiment is described as above.
In another experiment the target is HLA-A*69:01. The description is as above. Particulars: source organism: Vibrio cholerae 2740-80.
The target in experiment [13] is HLA-B*39:01. Described as above. Particulars: source organism: Vibrio cholerae 2740-80.
Experiment [14] has as its target HLA-B*18:01. The experiment is described as above. Conditions: source organism: Vibrio cholerae 2740-80.
The target in the next experiment is HLA-A*01:01. The experiment is described as above.
In another experiment the target is HLA-B*35:01. Described as above.
In the next experiment the target is HLA-A*31:01. Described as above.
A further experiment has as its target HLA-A*11:01. Put plainly: IEDB peptide-MHC binding, purified MHC/direct/fluorescence; filed as Kd, often an IC50 or EC50 that approximates it; ≥ and ≤ were set here for values at or beyond the usual limits of such assays.
Experiment [15] addresses HLA-A*03:01. Described as above.
Experiment [16] concerns the target HLA-A*02:12. The description is as above. Particulars: source organism: Brucella suis 1330.
The target in experiment [17] is HLA-A*29:02. Described as above. Particulars: source organism: Brucella suis 1330.
In experiment [18] the target is HLA-B*15:01. The experiment is described as above. Conditions: source organism: Brucella suis 1330.
The target in experiment [19] is HLA-B*27:03. The experiment is described as above. Conditions: source organism: Brucella suis 1330.
For experiment [20], the target named is HLA-B*46:01. The description is as above. Particulars: source organism: Brucella suis 1330.
The target of experiment [21] is HLA-B*15:17. The experiment is described as above. Particulars: source organism: Brucella suis 1330.
Experiment [22] concerns the target HLA-B*57:01. The experiment is described as above. Conditions: source organism: Brucella suis 1330.
Experiment [23] deals with HLA-A*02:11. The description is as above. Particulars: source organism: Brucella suis 1330.
The target in experiment [24] is HLA-A*02:01. The experiment is described as above. Particulars: source organism: Brucella suis 1330.
For a further experiment, the target named is HLA-A*02:16. The experiment is described as above. Conditions: source organism: Brucella suis 1330.
The next experiment addresses HLA-A*02:03. The description is as above. Conditions: source organism: Brucella suis 1330.
Experiment [25] has as its target HLA-A*24:03. The description is as above. Particulars: source organism: Brucella suis 1330.
Experiment [26] has as its target HLA-A*26:01. The experiment is described as above. Conditions: source organism: Brucella suis 1330.
The target in another experiment is HLA-A*02:19. Described as above. Particulars: source organism: Brucella suis 1330.
Experiment [27] addresses HLA-B*39:01. The experiment is described as above. Conditions: source organism: Brucella suis 1330.
Experiment [28] addresses HLA-B*18:01. The description is as above. Conditions: source organism: Brucella suis 1330.
The mark [29] stands for this setting: source organism: Vibrio cholerae 2740-80.
Setting [30] is: source organism: Salmonella enterica subsp. enterica serovar Typhi.
The mark [31] stands for this setting: source organism: Powassan virus.
Where [32] appears, read: source organism: Escherichia coli O157:H7.
[33] abbreviates: source organism: Yersinia pestis Nepal516.

A value given as a limit tells only on which side of the number the result lay.

The term Kd denotes the constant that tells how readily two partners part at equilibrium. Regarding FRAQTKGKV, the Kd with HLA-B*27:05 (source organism: Escherichia coli 536) came to 86.7 nM.

With VQPWLMVDV, the Kd was 1170 nM in the experiment with HLA-A*02:12 [1]; not below 20000 nM with HLA-A*29:02 [2]; not below 20000 nM with HLA-B*15:01 [3] (setting [29]); not below 20000 nM in the experiment with HLA-B*27:03 [4]; not below 20000 nM with HLA-B*46:01 [5]; not below 20000 nM with HLA-B*15:17 [6]. For the same sequence, the Kd with HLA-B*57:01 [7] is not below 20000 nM; with HLA-A*02:11 [8], 119 nM; in the experiment with HLA-A*02:01 [9], not below 20000 nM; in the experiment with HLA-A*03:01 [10] (setting [29]) it was not below 20000 nM; in the experiment with HLA-B*51:01, not below 20000 nM; in the experiment with HLA-A*68:02, not below 20000 nM. The Kd with HLA-A*24:03 [11], with HLA-A*26:01 [12] (setting [29]), with HLA-A*69:01, in the experiment with HLA-B*39:01 [13] and in the experiment with HLA-B*18:01 [14] was not below 20000 nM each time.

With ISANANFSY, the Kd with HLA-B*15:01 [3] (setting [30]) was 210 nM; with HLA-A*01:01 (setting [30]) it was 28.8 nM; with HLA-A*03:01 [10] (setting [30]), not below 20000 nM; with HLA-B*35:01 (setting [30]), 24.7 nM.

As for KRIGASLAH, the Kd with HLA-B*27:05 (source organism: Mycobacterium tuberculosis H37Rv) was determined as 171 nM.

GKLKYRASY came in with a Kd with HLA-B*27:05 (source organism: Campylobacter jejuni subsp. jejuni NCTC 11168 = ATCC 700819) of 4410 nM.

KLKLKGTTY: the Kd was 2150 nM in the experiment with HLA-A*31:01 (setting [31]), 68.4 nM with HLA-A*03:01 [10] (setting [31]) and not below 20000 nM with HLA-A*11:01 (setting [31]).

As for MIYMGLWLK, the dissociation constant Kd came out at 139 nM with HLA-A*31:01 (source organism: Escherichia coli O157:H7 str. Sakai), 118 nM in the experiment with HLA-A*03:01 [15] (setting [32]) and 4.7 nM with HLA-A*11:01 (setting [32]).

As for QAHMGIAGL, the Kd is not below 20000 nM with HLA-A*02:12 [16]; not below 20000 nM with HLA-A*29:02 [17]; not below 20000 nM with HLA-B*15:01 [18]; not below 20000 nM with HLA-B*27:03 [19]; not below 20000 nM with HLA-B*46:01 [20]; 3 nM in the experiment with HLA-B*15:17 [21]. The dissociation constant (Kd) with HLA-B*57:01 [22], with HLA-A*02:11 [23], in the experiment with HLA-A*02:01 [24], in the experiment with HLA-A*03:01 [15] (source organism: Brucella suis 1330), with HLA-A*02:16 and with HLA-A*02:03 was not below 20000 nM throughout. The equilibrium dissociation constant (Kd) with HLA-A*24:03 [25], with HLA-A*26:01 [26], in the experiment with HLA-A*02:19, with HLA-B*39:01 [27] and in the experiment with HLA-B*18:01 [28] was not below 20000 nM each time.

Regarding TRALVRTGM, the Kd with HLA-B*27:05 (source organism: Influenza A virus (A/swine/Italy/1509-6/97(H1N1))) worked out at 8.3 nM.

As for VMYNLWKMK, the equilibrium dissociation constant (Kd) with HLA-A*31:01 (source organism: Yellow fever virus) is 5.67 nM; in the experiment with HLA-A*11:01 (source organism: Yellow fever virus 17D) it was 6.3 nM.

FVMSCKLLY: the Kd was 700 nM in the experiment with HLA-A*01:01 (setting [33]), 1850 nM in the experiment with HLA-A*03:01 [10] (setting [33]), 327 nM with HLA-A*26:01 [12] (setting [33]) and 3.5 nM in the experiment with HLA-B*35:01 (setting [33]).
